Data taken from paper PMC8203652, “Facile fabrication of antibacterial and antiviral perhydrolase-polydopamine composite coatings” (Scientific Reports, 2021).

Substrate: CC(=O)OCC(C)OC(C)=O
Experiment: purified protein
Type: biochemical, Mycolicibacterium smegmatis
Settings: free enzyme; 200 mM H2O2 constant, PGD 3-100 mM, PBS; apparent (two-substrate reaction)

B1: AcT (perhydrolase S54V) (Mycolicibacterium smegmatis MC2 155; S54V) (protein)
chain: MAKRILCFGDSLTWGWVPVEDGAPTERFAPDVRWTGVLAQQLGADFEVIEEGLVARTTNIDDPTDPRLNGASYLPSCLATHLPLDLVIIMLGTNDTKAYFRRTPLDIALGMSVLVTQVLTSAGGVGTTYPAPKVLVVSPPPLAPMPHPWFQLIFEGGEQKTTELARVYSALASFMKVPFFDAGSVISTDGVDGIHFTEANNRDLGVALAEQVRSLL
notes: synthetic gene in pET28a, N-terminal His8 tag and thrombin site (LVPRGS), expressed in E. coli BL21(DE3), Ni-NTA purified; MW 180 kDa printed; S54V printed in the introduction only
Km: 13 mM | kcat: 4700 s⁻¹
